For experiment [1], the system named is diabetes-induced obesity (DIO) mice. The experiment in a line: Body weight and food intake of DIO mice over one week. In kind it is in vivo. Conditions: single injection 15 or 70 nmol/kg; for total food intake: FIG. 17; for total efficacy as measured over a week study: prodrug versus non-prodrug. On the procedure:
(§1) Nine groups of diabetes-induced obesity (DIO) mice (8 mice per group) having an initial average body weight of 56 g were intraperitoneally injected once and followed for one week with 15 or 70 nmol/kg of Peptides Y, Z, F-Peg, and G-Peg described below or PBS vehicle control.
The body weight of each mouse of each group was measured on 1, 3, 5, and 7 days after injection with the vehicle control or peptide. Total change in body weight was calculated by substracting the average body weight of a group at the time of injection with vehicle or peptide from the average body weight of the group seven days after injection. Food intake by each group of mice was measured during the course of the week as well. Total food intake was measured seven days after injection with vehicle control or peptide. […] The Ser11 substitution or the des-amino His7 reduces total efficacy.

Experiment [2] has the same test system. Briefly: Blood glucose after glucose injection in DIO mice. In kind it is in vivo. The following applies: for blood glucose concentrations compared with vehicle control: 15 or 70 nmol/kg intraperitoneally 60 min before […] glucose, FIG. 15; for blood glucose after glucose injection compared with corresponding non-prodrug form: 2 nmol/kg intraperitoneally 15 min before […] glucose, FIGS. 12, 13. The protocol:
Six groups of diabetes-induced obesity (DIO) mice (eight mice per group) having an initial average body weight of 49.5 g were intraperitoneally injected with 2 nmol/kg of a PBS vehicle control or one of Peptides A-E described below:
Fifteen minutes after injection with one of the compounds or with vehicle control (at time point 0), a 25% (w/v) glucose saline solution was injected at a dose of 1.5 g per kg of body weight. Blood glucose concentrations of the mice were measured at the time of injection of the compound or vehicle control, at the time of glucose injection, and at 15, 30, 60, and 120 minutes after glucose injection.
Blood glucose levels of the mice were measured as described in Example 5.
as §1
Sixty minutes after injection with one of the peptides or with vehicle control (at time point 0), a 25% (w/v) glucose saline solution was injected at a dose of 1.5 g per kg of body weight. Blood glucose concentrations of the mice were measured at the time of injection of the peptide or vehicle control (at time point −60), at the time of glucose injection (at time point 0), and at 15, 30, 60, and 120 minutes after glucose injection.

Experiment [3] deals with T1, GLP-1 receptor (Homo sapiens, UniProt P43220). The experiment in a line: cell-based or functional assay.
Target sequence in this assay (P43220 24-463 limits assumed): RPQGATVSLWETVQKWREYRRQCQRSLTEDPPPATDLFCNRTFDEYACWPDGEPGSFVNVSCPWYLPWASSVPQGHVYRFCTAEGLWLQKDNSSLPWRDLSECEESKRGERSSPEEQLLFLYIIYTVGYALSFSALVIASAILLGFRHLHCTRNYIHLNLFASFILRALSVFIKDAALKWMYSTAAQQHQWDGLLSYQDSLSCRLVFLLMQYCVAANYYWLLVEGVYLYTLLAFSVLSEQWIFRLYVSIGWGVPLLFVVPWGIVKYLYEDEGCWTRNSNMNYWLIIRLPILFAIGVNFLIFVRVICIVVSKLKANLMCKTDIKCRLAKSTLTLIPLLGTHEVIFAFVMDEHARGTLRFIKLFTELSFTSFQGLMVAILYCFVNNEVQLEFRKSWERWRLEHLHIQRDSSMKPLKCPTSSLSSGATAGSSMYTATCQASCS
Experiment [4] addresses glucagon receptor (UniProt P47871). The experiment in a line: cell-based or functional assay.
Experiment [5] shares this target. Briefly: cell-based or functional assay. This is another data set of the same source.
In experiment [6] the target is T1, GLP-1 receptor. The experiment in a line: Luciferase-based reporter gene assay for cAMP detection, GLP-1 receptor. In kind it is cell-based. Also on record: expressed in transfected cells; host or cells: HEK293. Conditions: for Potency compared with native GLP-1: luciferase assay, in vitro.
Target sequence in this assay (P43220 24-463, species assumed): as the sequence (P43220 24-463 limits assumed) above

Where no end group is shown, it is not given here. Side-chain parts run from the residue outwards. [ ]: non-standard residue; d: D form. The star is where a group is joined. Desaminohistidyl = O=C(CCc1c[nH]cn1)*; PLA = phenyl lactic acid; Aib = CC(C)(N)C(=O)O

Sequence of glucagon receptor (P47871 26-477 limits assumed): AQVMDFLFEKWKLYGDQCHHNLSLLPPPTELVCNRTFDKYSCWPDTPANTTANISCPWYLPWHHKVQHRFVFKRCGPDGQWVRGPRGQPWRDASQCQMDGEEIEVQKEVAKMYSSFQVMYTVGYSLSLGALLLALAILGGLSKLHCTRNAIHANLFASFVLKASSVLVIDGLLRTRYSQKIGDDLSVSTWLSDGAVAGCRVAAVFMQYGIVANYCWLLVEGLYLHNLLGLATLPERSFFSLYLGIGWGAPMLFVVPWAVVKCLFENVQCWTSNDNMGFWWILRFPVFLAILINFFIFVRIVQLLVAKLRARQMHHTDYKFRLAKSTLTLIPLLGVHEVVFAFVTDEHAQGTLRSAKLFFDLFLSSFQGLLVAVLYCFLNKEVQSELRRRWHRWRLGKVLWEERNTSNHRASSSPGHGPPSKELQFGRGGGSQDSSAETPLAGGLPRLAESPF

With “Peptide Y: GLP-1 with AIB at 8, Glu at 22, Cys at 30 linked to 40 kDa PEG, Exendin 4 extension (H[Aib]EGTFTSDVSSYLEEQAAKEFIC(PEG 40 kDa)WLVKGRPSSGAPPPS-NH2)”, the total food intake entry in experiment [1] (seven days) is given as “decreased”. In addition, in experiment [1] (seven days, FIGS. 16, 17), the “potency in decreasing appetite and decreasing body weight” value was “most potent of the four peptides”. Also, in experiment [2], the “blood glucose concentrations compared with vehicle control” value was “less as compared to the blood glucose levels of mice injected with vehicle control”.
As for G^5V^6-O-F^7,GLP(8-36)CEX (peptide), in the experiment with GLP-1 receptor [3], the % potency with respect to parent; before incubation amounted to 10.9%, the % potency with respect to parent; prodrug incubated in PBS for 24 hrs before the assay was 46% and the % potency with respect to parent; prodrug incubated in PBS for 168 hrs before the assay was 95.8%.
With “Glucagon (6-CEX) analog E9, K12, E16 (peptide)”, the Glucagon IC50 in the experiment with glucagon receptor [4] was found to be 762 nM. The substance further gave a Glu IC50 in the experiment with glucagon receptor [5] of 762 nM.
For “Peptide E: prodrug of Peptide D, d-Phe-d-Val ester-linked to Ser at position 11 (H[Aib]EGS([dV-dF])FTSDVSSYLEEQAAKEFIAWLVKGRPSSGAPPPS-NH2; N-terminus assumed; SMILES CC[C@H](C)[C@H](NC(=O)[C@H](Cc1ccccc1)NC(=O)[C@H](CCC(=O)O)NC(=O)[C@H](CCCCN)NC(=O)[C@H](C)NC(=O)[C@H](C)NC(=O)[C@H](CCC(N)=O)NC(=O)[C@H](CCC(=O)O)NC(=O)[C@H](CCC(=O)O)NC(=O)[C@H](CC(C)C)NC(=O)[C@H](Cc1ccc(O)cc1)NC(=O)[C@H](CO)NC(=O)[C@H](CO)NC(=O)[C@@H](NC(=O)[C@H](CC(=O)O)NC(=O)[C@H](CO)NC(=O)[C@@H](NC(=O)[C@H](Cc1ccccc1)NC(=O)[C@H](COC(=O)[C@H](NC(=O)[C@H](N)Cc1ccccc1)C(C)C)NC(=O)CNC(=O)[C@H](CCC(=O)O)NC(=O)C(C)(C)NC(=O)[C@@H](N)Cc1c[nH]cn1)[C@@H](C)O)C(C)C)C(=O)N[C@@H](C)C(=O)N[C@@H](Cc1c[nH]c2ccccc12)C(=O)N[C@@H](CC(C)C)C(=O)N[C@H](C(=O)N[C@@H](CCCCN)C(=O)NCC(=O)N[C@@H](CCCNC(=N)N)C(=O)N1CCC[C@H]1C(=O)N[C@@H](CO)C(=O)N[C@@H](CO)C(=O)NCC(=O)N[C@@H](C)C(=O)N1CCC[C@H]1C(=O)N1CCC[C@H]1C(=O)N1CCC[C@H]1C(=O)N[C@@H](CO)C(N)=O)C(C)C)”, the “blood glucose after glucose injection compared with corresponding non-prodrug form” value in experiment [2] is “higher than the blood glucose levels of mice injected with the corresponding non-prodrug forms”.
On to “Peptide F-Peg: Peptide F analog with Cys at 30 covalently linked to a 40 kDa PEG ([Desaminohistidyl]SEGTFTSDVSSYLEEQAAKEFIC(PEG 40 kDa)WLVKGRPSSGAPPPS-NH2)”, for which, in experiment [1], the “total efficacy as measured over a week study” value is given as “comparable”. The total food intake result in experiment [1] (seven days) is “decreased”. For the same substance, in experiment [2], the “blood glucose concentrations compared with vehicle control” value is given as “less as compared to the blood glucose levels of mice injected with vehicle control”.
As to “Glucagon (6-CEX) analog [PLA6, E9, K12E16(Lactam) (peptide)”, the Glucagon IC50 in the experiment with glucagon receptor [4] amounted to 72 nM. In the experiment with glucagon receptor [5], this substance came in with a Glu IC50 of 72 nM. Moreover, the GLP-1 EC50 in the experiment with GLP-1 receptor [3] was found to be 6 nM.
In the case of “Peptide A: prodrug of Peptide B, dipeptide d-Phe-dPhe attached via the O-terminus ({dF-dF-PLA}-[Aib]EGTFTSDVSSYLEEQAAKEFIAWLVKGRPSSGAPPPS-NH2; also: PLA bonded to D-Phe via an ester bond)”, in experiment [2], the “blood glucose after glucose injection compared with corresponding non-prodrug form” value is reported as “higher than the blood glucose levels of mice injected with the corresponding non-prodrug forms”.
In the case of “Glucagon (6-CEX) analog E9, K12E16(lactam) (peptide)”, the Glucagon IC50 with glucagon receptor [4] amounted to 2010 nM. The substance further displayed a Glu IC50 with glucagon receptor [5] of 2010 nM. The GLP-1 EC50 with GLP-1 receptor [3] was 63 nM.
As to “Peptide C: prodrug of Peptide B, dipeptide d-Phe-d-Val attached via the O-terminus ({dF-dV-PLA}-[Aib]EGTFTSDVSSYLEEQAAKEFIAWLVKGRPSSGAPPPS-NH2; also: PLA bonded to D-Val via an ester bond)”, in experiment [2], the “blood glucose after glucose injection compared with corresponding non-prodrug form” value is reported as “higher than the blood glucose levels of mice injected with the corresponding non-prodrug forms”.
In turn, “Glucagon (6-CEX) analog E9, E16K20(lactam) (peptide)” gave a Glucagon IC50 with glucagon receptor [4] of 42 nM. The Glu IC50 in the experiment with glucagon receptor [5] is 42 nM. The GLP-1 EC50 with GLP-1 receptor [3] was 36 nM.
Consider “Peptide G-Peg: pegylated prodrug, d-Phe-d-Val ester-linked to the Ser at position 8 ([Desaminohistidyl]S([dV-dF])EGTFTSDVSSYLEEQAAKEFIC(PEG 40 kDa)WLVKGRPSSGAPPPS-NH2)”, for which the “total efficacy as measured over a week study” value in experiment [1] is listed as “comparable”. In addition, in experiment [1] (seven days), the total food intake entry is recorded as “decreased”. For the same substance, the “blood glucose concentrations compared with vehicle control” value in experiment [2] is “less as compared to the blood glucose levels of mice injected with vehicle control”.
Consider “Peptide G: prodrug of Peptide F, d-Phe-dVal ester-linked to the Ser at position 2 of Peptide F ([Desaminohistidyl]S([dV-dF])EGTFTSDVSSYLEEQAAKEFIAWLVKGRPSSGAPPPS-NH2; SMILES CC[C@H](C)[C@H](NC(=O)[C@H](Cc1ccccc1)NC(=O)[C@H](CCC(=O)O)NC(=O)[C@H](CCCCN)NC(=O)[C@H](C)NC(=O)[C@H](C)NC(=O)[C@H](CCC(N)=O)NC(=O)[C@H](CCC(=O)O)NC(=O)[C@H](CCC(=O)O)NC(=O)[C@H](CC(C)C)NC(=O)[C@H](Cc1ccc(O)cc1)NC(=O)[C@H](CO)NC(=O)[C@H](CO)NC(=O)[C@@H](NC(=O)[C@H](CC(=O)O)NC(=O)[C@H](CO)NC(=O)[C@@H](NC(=O)[C@H](Cc1ccccc1)NC(=O)[C@@H](NC(=O)CNC(=O)[C@H](CCC(=O)O)NC(=O)[C@H](COC(=O)[C@H](NC(=O)[C@H](N)Cc1ccccc1)C(C)C)NC(=O)CCc1c[nH]cn1)[C@@H](C)O)[C@@H](C)O)C(C)C)C(=O)N[C@@H](C)C(=O)N[C@@H](Cc1c[nH]c2ccccc12)C(=O)N[C@@H](CC(C)C)C(=O)N[C@H](C(=O)N[C@@H](CCCCN)C(=O)NCC(=O)N[C@@H](CCCNC(=N)N)C(=O)N1CCC[C@H]1C(=O)N[C@@H](CO)C(=O)N[C@@H](CO)C(=O)NCC(=O)N[C@@H](C)C(=O)N1CCC[C@H]1C(=O)N1CCC[C@H]1C(=O)N1CCC[C@H]1C(=O)N[C@@H](CO)C(N)=O)C(C)C)”, for which, in experiment [2], the “blood glucose after glucose injection compared with corresponding non-prodrug form” value was “higher than the blood glucose levels of mice injected with its corresponding non-prodrug form”.
Turning to “HAEGTFTSDVSSYLEGQAAKEFIAWLVKGRGKRNRNNIA [GLP-oxyntomodulin, GLP-oxyntomodulin chimeric peptide]”, the “Potency compared with native GLP-1” value in the experiment with GLP-1 receptor [6] is recorded as “at least as potent as the native GLP-1 peptide”.
The same measure, in the same setting: for “H^7AEGTFTSDVSSYLEGQAAKEFIAWLVKGXPSSGAPPPS-amide [GLP(7-36)-CEX amide]” the value was “approximately ten times more potent in vitro than the native GLP-1 sequence”.
With “Peptide Z: pegylated (40 kDa) GLP-1-based prodrug, d-Phe-d-Val ester-linked to Ser at position 11 (H[Aib]EGS([dV-dF])FTSDVSSYLEEQAAKEFIC(PEG 40 kDa)WLVKGRPSSGAPPPS-NH2)”, the total food intake result in experiment [1] (seven days) was “decreased”. For the same substance, the “blood glucose concentrations compared with vehicle control” value in experiment [2] was “less as compared to the blood glucose levels of mice injected with vehicle control”.
Take HO-F^5F^6-O-F^7,GLP(8-36)-CEX (peptide): in the experiment with GLP-1 receptor [3], the % potency with respect to parent; before incubation amounted to 3.7% and the % potency with respect to parent; prodrug incubated in PBS for 24 hrs before the assay was 17.2%.
In the case of “F^7,GLP(8-37): aa 7-37 of GLP-1 with the His at position 7 replaced with Phe (FAEGTFTSDVSSYLEGQAAKEFIAWLVKGRG; Glucagon-like peptide 1(7-37); UniProt P01275 98-128, looked up, variant H7F)”, the Agonist character entry with GLP-1 receptor [6] is “full agonist”. For the same substance, the “potency of native GLP-1” value with GLP-1 receptor [6] (percent of the potency of native GLP / GLP-1) was 10%.
As to “HO-FAEGTFTSDVSSYLEGQAAKEFIAWLVKGXPSSGAPPPS [HO—F^7,GLP(8-36)-CEX]”, at GLP-1 receptor [6] (Table 7, before incubation (0 hrs), parent drug as such), the “% potency with respect to parent” value was 100% (parent drug). At GLP-1 receptor [6], the “Potency compared with native GLP-1” value is “at least as potent as the native GLP-1”.
Consider “Glucagon (6-CEX) analog [PLA6, E9, E16K20(Lactam)] (peptide)”, for which the Glucagon IC50 with glucagon receptor [4] was determined as 20 nM.

For the origin of these results see patent US20110065633A1, “ESTER-BASED PEPTIDE PRODRUGS” (INDIANA UNIVERSITY RESEARCH AND TECHNOLOGY CORPORATION, priority 2008, published 2011).
